For the assay, the target named is heterochromatin protein HP1γ (UniProt Q13185). Put plainly: proximity labelling; PUB (proximity utilizing biotinylation): BAP-HP1γ co-expressed with BirA-HP1γ or, in a separate dish, with BirA-Tap54α; 4 h biotinylation time; MRM LC-MS/MS on Agilent nanoHPLC-Chip ion trap, Skyline; ratio of biotinylation level, experiment versus control.

Sequence of heterochromatin protein HP1γ, Q13185 1-183 (natural protein; other documents disagree on this pair) (Q13185 whole entry): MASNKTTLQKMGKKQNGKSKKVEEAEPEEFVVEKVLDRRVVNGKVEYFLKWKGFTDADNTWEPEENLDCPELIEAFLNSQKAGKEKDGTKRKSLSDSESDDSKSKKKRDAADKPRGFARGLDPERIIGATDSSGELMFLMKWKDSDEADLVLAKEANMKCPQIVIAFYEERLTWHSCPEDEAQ

For “heterochromatin protein HP1γ, Q13185 1-183 (natural protein; other documents disagree on this pair)”, the ratio of biotinylation level, experiment versus control BAP-HP1γ + BirA-Tap54α (4 h biotinylation time) is 32.

Source of the values: paper PMC8658920.
